One molecule from US20210054076A1 (Chugai, published 2021) can be followed below.

Positions count from the first letter of the chain named.

Assay [1] deals with T1, hCLDN6(Q156L) (human, UniProt P56747 1-220).
T1 construct: Stably expressed on Ba/F3 cells; also called human CLDN6 mutant; BaF3_hCLDN6(Q156L)
T1 chain: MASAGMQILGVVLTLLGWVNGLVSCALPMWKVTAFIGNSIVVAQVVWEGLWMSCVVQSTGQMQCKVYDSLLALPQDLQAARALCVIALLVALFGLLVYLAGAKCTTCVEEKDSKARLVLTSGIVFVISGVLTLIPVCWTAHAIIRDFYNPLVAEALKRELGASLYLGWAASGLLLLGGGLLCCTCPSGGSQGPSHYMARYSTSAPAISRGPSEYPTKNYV
The experiment in a line: FACS on Ba/F3 transfectant, antibody 20 micro g/ml, FITC anti-human IgG. Here is the method:
(§1) To evaluate the binding activity and specificity of the generated CLDN6-TRABs against CLDN6 and other Claudin family antigens, FACS analysis was conducted as follows. Ba/F3 transfectants stably express a kind of protein selected from human CLDN3 (hCLDN3), human CLDN4 (hCLDN4), human CLDN6 (hCLDN6), human CLDN9 (hCLDN9), mouse CLDN3 (mCLDN3), mouse CLDN4 (mCLDN4) and mouse CLDN6 (mCLDN6), were generated using similar method described in WO2008/087978, and named BaF3_hCLDN3, BaF3_hCLDN4, BaF3_hCLDN6, BaF3_hCLDN9, BaF3 mCLDN3, BaF3 mCLDN4, BaF3 mCLDN6, respectively. Each of the CLDN6-TRABs (CH01/CD3, CH02/CD3, CH03/CD3, CH04/CD3) was incubated with the Ba/F3 transfectants at an antibody concentration of 20 micro g/ml in FACS buffer (0.5% BSA containing autoMACS Rinsing Solution, Miltenyl Biotec). Binding activities of each CLDN6-TRAB to the Claudin family proteins (hCLDN3, hCLDN4, hCLDN6, hCLDN9, mCLDN3, mCLDN4, mCLDN6) were examined by incubation of FITC-conjugated goat anti human IgG (BeckmanCoulter), represented as Geo-mean value. Sample processing was conducted on FACSVerse (BD).
(§2) Claudin family proteins have two extracellular domains. The sequence of the first extracellular domain in human CLDN9 is almost the same compared with the first extracellular domain of human CLDN6. For the second extracellular domain of human CLDN9, there are only two amino acids different from the ones at their corresponding positions in human CLDN6 (FIG. 2). The glutamine at position 156 of human Claudin 6 (position 156 in the sequence shown in SEQ ID NO: 44 or 45) was substituted to leucine to make a human CLDN6 mutant comprising the same amino acid as human Claudin 9 at position 156. This human CLDN6 mutant was named as hCLDN6(Q156L) (SEQ ID NO: 53). Ba/F3 transfectant stably express hCLDN6(Q156L) was generated using similar method described in WO2008/087978. The established Ba/F3 transfectant was named BaF3_hCLDN6(Q156L). Binding activity of the generated CLDN6-TRABs against BaF3_hCLDN6(Q156L) was measured using the above mentioned FACS method and the results are shown in FIG. 1 and Table 3.

The target in assay [2] is T2, mouse CLDN4 (mouse, UniProt O35054 1-210).
T2 construct: whole, on cells; also called mCLDN4; BaF3_mCLDN4
T2 sequence (looked up): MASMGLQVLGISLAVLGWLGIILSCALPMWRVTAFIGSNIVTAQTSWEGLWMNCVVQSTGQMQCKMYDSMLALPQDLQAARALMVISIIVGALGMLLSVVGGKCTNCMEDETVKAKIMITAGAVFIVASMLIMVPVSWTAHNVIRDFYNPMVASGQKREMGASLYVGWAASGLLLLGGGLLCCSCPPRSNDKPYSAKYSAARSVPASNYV
The assay is described as above. Here is the method: as §1, §2

For assay [3], the target named is T3, human CLDN3 (human, UniProt O15551 1-220).
T3 construct: whole, on cells; also called hCLDN3; BaF3_hCLDN3
T3 sequence (looked up): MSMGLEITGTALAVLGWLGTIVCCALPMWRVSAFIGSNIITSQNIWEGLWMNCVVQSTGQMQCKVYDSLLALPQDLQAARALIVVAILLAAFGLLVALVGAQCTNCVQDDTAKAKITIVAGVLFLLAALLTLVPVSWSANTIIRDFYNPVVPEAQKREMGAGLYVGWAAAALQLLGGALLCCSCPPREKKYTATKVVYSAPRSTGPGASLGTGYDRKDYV
Described as above. As for the experimental part:
as §1, §2

In assay [4] the target is T4, human CLDN4 (human, UniProt O14493 1-209).
T4 construct: whole, on cells; also called hCLDN4; BaF3_hCLDN4
T4 sequence (looked up): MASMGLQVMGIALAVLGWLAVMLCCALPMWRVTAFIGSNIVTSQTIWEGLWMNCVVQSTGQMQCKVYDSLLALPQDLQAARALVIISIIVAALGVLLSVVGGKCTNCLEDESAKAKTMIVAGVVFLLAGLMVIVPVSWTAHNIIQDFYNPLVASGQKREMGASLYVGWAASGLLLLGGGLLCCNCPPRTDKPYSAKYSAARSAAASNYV
The description is as above. As for the experimental part:
as §1, §2

In assay [5] the target is T5, human CLDN6 (human, UniProt P56747 1-220).
T5 construct: 45 is entered here, 44 is equally possible; also called hCLDN6; human Claudin 6
T5 sequence: T1 chain with L156Q
The description is as above. Here is the method: as §1, §2

Assay [6] concerns the target T6, mouse CLDN3 (mouse, UniProt Q9Z0G9 1-219).
T6 construct: whole, on cells; also called mCLDN3; BaF3_mCLDN3
T6 sequence (looked up): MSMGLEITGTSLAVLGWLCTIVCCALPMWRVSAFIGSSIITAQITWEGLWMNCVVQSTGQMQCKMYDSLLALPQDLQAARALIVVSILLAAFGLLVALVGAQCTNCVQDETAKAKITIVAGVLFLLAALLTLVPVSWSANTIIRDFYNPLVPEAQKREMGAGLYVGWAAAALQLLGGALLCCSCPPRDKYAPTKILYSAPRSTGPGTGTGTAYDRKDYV
The description is as above. As for the experimental part:
as §1, §2

Assay [7] has as its target T5, human CLDN6. The experiment in a line: cell-based or functional assay.

B1: CH01/CD3 (bispecific antibody, human IgG1, kappa, N297A)
heavy 1: EVKLVESGGGLVKPGGSLKLSCAASGFTFNSYTMSWVRQTPAKRLEWVVTISSGGGRTYYPDSVKGRFTISRDNARNTLYLQMSSLRSEDTAMYYCIRGDYRYDGFAYWGQGTLVTVSTASTKGPSVFPLAPSSKSTSGGTAALGCLVKDYFPEPVTVSWNSGALTSGVHTFPAVLQSSGLYSLSSVVTVPSSSLGTQTYICNVNHKPSNTKVDKKVEPKSCDKTHTCPPCPAPELRGGPKVFLFPPKPKDTLMISRTPEVTCVVVDVSHEDPEVKFNWYVDGVEVHNAKTKPREEQYASTYRVVSVLTVLHQDWLNGKEYKCKVSNKALPAPIEKTISKAKGQPREPQVYTLPPSREEMTKNQVSLTCLVKGFYPSDIAVEWESNGQPENNYKTTPPYLDSDGSFFLYSKLTVDKSRWQQGNVFSCSVMHEALHNHYTQESLSLSP
light 1: DIQMTQSPASLSASVGETVTITCRASENIDSYLAWYQQKQGKSPQLLVYASTLLVDGVPSRFSGSRSGTQFSLKINSLQSEDVARYYCQHYYSIPYTFGSGTKLEIKRTVAAPSVFIFPPSDEQLKSGTASVVCLLNNFYPREAKVQWKVDNALQSGNSQESVTEQDSKDSTYSLSSTLTLSKADYEKHKVYACEVTHQGLSSPVTKSFNRGEC
heavy 2: QVQLVESGGGVVQPGGSLRLSCAASGFTFSNAWMHWVRQAPGKGLEWVAQIKDKSQNYATYVAESVKGRFTISRADSKNSIYLQMNSLKTEDTAVYYCRYVHYAAGYGVDIWGQGTTVTVSSASTKGPSVFPLAPSSKSTSGGTAALGCLVKDYFPEPVTVSWNSGALTSGVHTFPAVLQSSGLYSLSSVVTVPSSSLGTQTYICNVNHKPSNTKVDKKVEPKSCDKTHTCPPCPAPELRGGPKVFLFPPKPKDTLMISRTPEVTCVVVDVSHEDPEVKFNWYVDGVEVHNAKTKPREEQYASTYRVVSVLTVLHQDWLNGKEYKCKVSNKALPAPIEKTISKAKGQPREPQVYTLPPSRKEMTKNQVSLTCLVKGFYPSDIAVEWESNGQPENNYKTTPPYLDSDGSFFLYSKLTVDKSRWQQGNVFSCSVMHEALHNHYTQKSLSLSP
light 2: DIVMTQSPLSLPVTPGEPASISCRSSQPLVHSNRNTYLHWYQQKPGQAPRLLIYKVSNRFSGVPDRFSGSGSGTDFTLKISRVEAEDVGVYYCGQGTQVPYTFGQGTKLEIKRTVAAPSVFIFPPSDEQLKSGTASVVCLLNNFYPREAKVQWKVDNALQSGNSQESVTEQDSKDSTYSLSSTLTLSKADYEKHKVYACEVTHQGLSSPVTKSFNRGEC
notes: Made by Fab arm exchange of the bivalent anti-CLDN6 antibody CH01 with the bivalent anti-CD3 antibody CD3-1; human IgG1 constant region; One anti-CLDN6 arm and one anti-CD3 arm; also called CLDN6-TRAB; CLDN6-targeted T-cell redirecting bispecific antibody
In the case of B1, the “Geo-mean value of FACS” value in assay [1] is 114; in assay [2], 31; in assay [3] it was 37; in assay [4], 51; in assay [5] it was 4480; in assay [6] it was 26. In addition, in assay [7], the “EC50 (read off the curve), Jurkat/NFAT-RE luciferase reporter, target cells HuH-7” value is approximately 90 pM.
